{"source": "the nanobody polyreactivity screen of Harvey et al. (2022)"}
{"experiment": "yeast display, Sf9 membrane polyspecificity reagent, FACS + sequencing; frameworks hold sequencing errors", "in_short": "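Galactose-induced (36–48 hours) yeast carrying a synthetic nanobody display library were exposed to 10% biotinylated, detergent-solubilized Sf9 membrane reagent at 4 °C for 1 hour. FACS followed streptavidin microbead enrichment, using low and high (top ~1%) gates for expression (anti-HA) and reagent binding (streptavidin). Colony PCR, MiSeq 2 × 250 sequencing and CDR-length filtering followed. Labels for polyreactivity reflect the gate of origin.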"}
{"sequence": "QVQLVESGGGLVQAGGSLRLSCAASGFIFVRYAMGWYRLAPGKEREFVAAISGGAGSSYYADSVKGRFTISRDNAKNTVYLQMNSLKPEDTAVYYCNRVRSLRYGYWGQGTQVTVSS", "polyreactivity (PSR sort gate)": "high polyreactivity"}
{"sequence": "QVQLVESAGGLVQAGGSHRLSFAATGRIFGPNTMGWYRQAPGKERDLVATITGGGGTNYADSVKGRFRISRVNAKYTDYLQMNSLKPVDTAVYYCAADYGGAYEYGYWGQGTQVTVSS", "polyreactivity (PSR sort gate)": "low polyreactivity"}
{"sequence": "QVQLVESGGGLVQAGGSLRLSCAASGFTFDWYAMGWYRQAPGKERELVAAISSSGRTNYADSVKGRFTISRDNAKNTVYLQMNSLKPEDTAVYYCNRDYPYIWHKGARYWHENDYWGQGTQVTVSS", "polyreactivity (PSR sort gate)": "low polyreactivity"}
{"sequence": "QVQLVESGGGLVQAGGSLRLSCAASGGIFGWYTMGWYRQAPGKERELVAAINFSGSRTYYADSVKGRFTISRDNAKNTVYLQMNSLKPEDTAVYYCNAVYHQFREEYWGQGTQVTVSS", "polyreactivity (PSR sort gate)": "high polyreactivity"}
{"sequence": "QVQLVESVGGLVQAGGSLRLSCAASGITFWKYTMGWYRQAPGKERELVAAITGRGGSTYYADSVKGRFTISRDNAKNTVYLQMNSLKPEDTAVYYCAADPYHLQTRFSGLAEFYYWGQGTQVTVSS", "polyreactivity (PSR sort gate)": "low polyreactivity"}
{"sequence": "QVQLVESGGGLVQAGGSLRLSCAASGSIFWWNAMGWYRQAPGKERELVAAINWSTGRTYYADSVKGRFTISRDNAKNTVYLQMNSLKPEDTAVYYCNADSKSSYYWYLWYNYWGQGTQVTVSS", "polyreactivity (PSR sort gate)": "low polyreactivity"}
{"sequence": "QVQLVESGGGLVQAGVSLLLSCAASGRTFYANAMGWYSQAPGKEREFVAAISYGTGGTYYADSVKGRFTISRDNAKNTVYLQMNTLKPEDTAVYYCAASLYWGIYGWMGYWGQGTQVTVSS", "polyreactivity (PSR sort gate)": "high polyreactivity"}
{"sequence": "QVQLVESGGGLVQAGGSLRLSCAASGSTFDLYAMGWYRQAPGKEREFVASISWRGTNTYYADSVKGRFTISRDNAKNTVYLQMISLKPEDTAVYYCYAVRGWTTRYDYWGQGTQVTVSS", "polyreactivity (PSR sort gate)": "high polyreactivity"}
{"sequence": "QVQLVESGGGLVQAGGSLRLSCAASGRTQSANAMGWYREAPGKERELVATISTRGGRTYYADSVKGRFTISRDNAKNTVYLQMNSLKPEDTAVYYCAVTIRAKYTMKEDYWGQGTQVTVSS", "polyreactivity (PSR sort gate)": "low polyreactivity"}
{"sequence": "QVQLVESGGGLVQAGGSLRLSCAASGSTFGRYAMGWYRQAPGKEREFVAAISCSGGSTYYADSVKGRFTISRDNAKNTVYLQMNSLNPEDTAVYYWARYSWRGLAEFESWGQGTQVTVSS", "polyreactivity (PSR sort gate)": "low polyreactivity"}
{"sequence": "QGQLVESGGGLVQAGGSLRLSCAASGSIFPRYVMGWYRQAPGKERELVAAITTSGGRTYYADSVKGRFTISRDNAKKTVYLQMNSQKPVDTAVYYCAARPWGYRYGSEYVGGDYWGQGTQVTVSS", "polyreactivity (PSR sort gate)": "high polyreactivity"}
{"sequence": "QVQLVESGGGLVQAGRSLRLICAASGRTFVYYAMGWYRPAPGKERELVAAITWSGGRTYYADSVKGRFTISRDNAKNTVYLQMNSLKQEDTAVYYCNRDQWPWESGYAYNYWGQGTQVTVSS", "polyreactivity (PSR sort gate)": "low polyreactivity"}
{"sequence": "QVQLVESGGGLVQAGGSLRLSCAASGSTFYPYAMGWYRQAPGKEWEFVADITKRGGSTYYADSVKGRFTISRDNAKNTVYLQMNSLKPEDTAVYYCNAYNYDLVYPQYDYWGQGTQVTVSS", "polyreactivity (PSR sort gate)": "low polyreactivity"}
{"sequence": "QVQLVESGGGLVQAGGSLRLSCAASGITFKAYAMGWYRQAPGKERELVAAINTSGARTYYADSVKGRFTISRDNAKNTVYLQMNSLKPEDTAVYYCNARLHQQEGDYWGQGTQVTVSS", "polyreactivity (PSR sort gate)": "low polyreactivity"}
{"sequence": "QVQLVESGGGLVQAGGSLRLSCAASGFIFSYNAMGWYRQAPGKERELVAAISARGGSTYYADSVKGRFTISRDNAKNTVYLQMNSLKPEDTAVYYCNRKQAGHAQGYDYWGQGTQVTVSS", "polyreactivity (PSR sort gate)": "high polyreactivity"}
{"sequence": "QVQLVESGGGLVQAGGSLRLSCAASGFIFRKYAMGWYRHAPGKETELVAAITRNGGRTYYADSVKGRFTISRDNAKYTVYLQMNSLKPEDTAVFYCNRRGQYTFWPIHEYWGQGTQVTVSS", "polyreactivity (PSR sort gate)": "high polyreactivity"}
{"sequence": "QVQLVESGGGLVQAGGSLRLSCAASGGIFLFNAMGWYRQAPGKERELVAAITDGGSTYYADSVKGRFTISRDNAKNTVYLQMNSLIPDDTAVYYCNKDSSFWGYYIAQVNERDYWGQGTQVTVSS", "polyreactivity (PSR sort gate)": "low polyreactivity"}
{"sequence": "QVQLGESGGGIVQAGGSLRLSCAASGRTFAFNAMGWYRQAPGKERELVAAIRWSGGSTYYADSVKGRFTISRDNAKNTVYLQMNSLKPEDTAVYYCATGKWGYFRYNYWGQGTQVTVSS", "polyreactivity (PSR sort gate)": "high polyreactivity"}
{"sequence": "QVQLVESGGGLVQAGGSLRLSCAASGRIFTKYAMGWYRQAPGKERELVASISSGGSTYYADSVKGRFTISRDNAKNTVYLQMNSLKPEDTAVYYCARSTGTSRRMDDWGQGTQVTVSS", "polyreactivity (PSR sort gate)": "high polyreactivity"}
{"sequence": "QVQLVESGGGLVQAGGSLRLSCAASGRTFYKNAMGWYRQAPWKERELVAAISYGGGSTYYADSVKGRFTISRDNAKNTVYLQMNSLKPEDTAVYYCATQLPFRKPWHDYWGQGTQVTVSS", "polyreactivity (PSR sort gate)": "high polyreactivity"}
{"sequence": "QVQLVESGGGLVQAGGSLRLTCAASGRIFSNDKGWYRQAPGKERELVAAITWSGGTTHYADSVKGRFTISRDNAKNTVYLQMNSLKPEDTAVYYCARAGGHAYSYWGQGTQVTVSS", "polyreactivity (PSR sort gate)": "low polyreactivity"}
{"sequence": "QVQLVESGGGVVQAGGSLRLSCAATGSTFYSYAMGWYRQAPGKEREFVASITRSGVRTYYADSVKGRFTISRDNAKNTVYLQMNSLKPDDTAFYYCAAERYYFPRSYRYGYWGQGTQVTVSS", "polyreactivity (PSR sort gate)": "low polyreactivity"}
{"sequence": "QVQLVESGGGLVQAGGSLRLSCAASGRIFVDNAMGWYRQAPGKERELVATITSTGSTNYADSVKGRFTISRDNAKYTVYLQMNSLKPEDTAVYYCNADGKLQDYDYWGQGTQVTVSS", "polyreactivity (PSR sort gate)": "high polyreactivity"}
{"sequence": "QVQLVESGGGLVQAGGSLRLSCAASGRTFGYYAMGWYRQAPGKERELVAAISWRTVSTHYADSVKGRFTISRDNAKNTVYLQMNSLKPEDTAVYYCAARWGKIRGFHLDYWGQGTQVTVSS", "polyreactivity (PSR sort gate)": "high polyreactivity"}
{"sequence": "QVQLVESGGGLVQAGGSLRLSCAASGRIFYRYGMGRYRPAHGKVRELVASITRGGSTYYADSVKWRFTISRDNAKNTVYLQMNSLKPEDTAVYDSNRDIGGTSVLDDYWGQGTQVTVSS", "polyreactivity (PSR sort gate)": "low polyreactivity"}
{"sequence": "QVQLVESGGGLVLAGGSLRLSCAASGSIFSLYAMGWYRQAPGKEREVVAALSRGGSTNYADSVKGRFTISRDTAKNTVYLQMNCLKPEDTAVYYSNAGFGVRRKHITVYTWYDYWGQGTQVTVSS", "polyreactivity (PSR sort gate)": "low polyreactivity"}
{"sequence": "QVQLVESGGGLVQAGGSLRLSCAASGFTFNYYAMGWYRQAPGKERELVAAISRSGGNTYYADSVKGRFTISRDNAKNTVYLQMNSLKPEDTAVYYCAAYLRSYVRYYYWGQGTQVTVSS", "polyreactivity (PSR sort gate)": "high polyreactivity"}
{"sequence": "QVQLVESGGGLVQAGGSLRLSCAASGRIFFVNAMGWYRQAPGKERELVAAITYSGARTYYADSVKGRFTISRDHAKNTVYLQMNSLKPEDTAVYYCNADQRTASDQLEFDYWGQGTQVTVSS", "polyreactivity (PSR sort gate)": "low polyreactivity"}
{"sequence": "QVQLVESGGGLVQAGGSLRLSCAASGSTFTSYAMGWYRQAPGKERELVAGITSRGTSTYYADSVKGRFTISRDHAKNTVYLQMNSLKPEYTAVYYCAAVYLSYGPGSEDPLGYWGQGTQVTVSS", "polyreactivity (PSR sort gate)": "high polyreactivity"}
{"sequence": "QVQLVESGGGLVQAGGSLRLSCAASGIIFLYNDMGGYRHAPGKEREFVATISRSGGSTYYADSVKGRFTISRDNAKNTVYLQMNSLKPEDTAVYYCAADEDSGYGYWGQGTQVTVSS", "polyreactivity (PSR sort gate)": "low polyreactivity"}
